Laboratory results from patent US20240209099A1 (SUZHOU TRANSCENTA THERAPEUTICS, published 2024).
Substitutions are numbered along the chain they refer to. Blank lines part the entries; values can stand above or below the binder they belong to.

Experiments:
[1] = biological target: T1, Recombinant Human VEGFR2/KDR Protein, His tag (hVEGFR2-his) (human, UniProt P35968 20-764); assay: SPR (Biacore), antibody captured by anti-Fc, antigen 2.5-80 nM
T1 construct: Expressed in HEK293, bought from ACRO Biosystems; also called human VEGFR2-his; Human VEGFR2/KDR-His
Experimental: A CM5 sensor chip was activated in each flow cell by 7-min injection (10 μl/min) of freshly prepared 1:1 50 mM N-hydroxysuccinimide (NHS): 200 mM 1-ethyl-3-(3-dimethylaminopropyl)-carbodiimide (EDC). Then anti-human Fc antibody (GE Healthcare) in a concentration of 10 μg/ml in 10 mM sodium acetate buffer PH 5.0 was injected onto the activated chip at 10 μl/min (HBS-EP running buffer: 10 mM HEPES, 150 mM NaCl, 3.4 mM EDTA, 0.005% surfactant P20, pH 7.4). The remaining active coupling sites were blocked by 7 min injection of 1M ethanolamine at 10 μl/min. The immobilization level of each flow cell is ˜9000RU. Antibodies were captured in FC2 by anti-human Fc IgG or anti-mouse Fc (GE Healthcare) to 200˜300RU. FC1 was used as the reference cell. Antigen was injected at varying concentrations (2.5 nM, 5 nM, 10 nM, 20 nM, 40 nM and 80 nM) after capture of antibody. The association time for antibody binding antigen is 180s. Surface Regeneration condition is 120s at 10 μl/min in Gly pH1.5. The signals with captured antibody subtracted from those without captured antibody were calculated with Biacore X100 evaluation software ver. 2.0 (Biacore).
Target sequence in this assay (P35968 other isoform, or with tags, fused parts or gaps): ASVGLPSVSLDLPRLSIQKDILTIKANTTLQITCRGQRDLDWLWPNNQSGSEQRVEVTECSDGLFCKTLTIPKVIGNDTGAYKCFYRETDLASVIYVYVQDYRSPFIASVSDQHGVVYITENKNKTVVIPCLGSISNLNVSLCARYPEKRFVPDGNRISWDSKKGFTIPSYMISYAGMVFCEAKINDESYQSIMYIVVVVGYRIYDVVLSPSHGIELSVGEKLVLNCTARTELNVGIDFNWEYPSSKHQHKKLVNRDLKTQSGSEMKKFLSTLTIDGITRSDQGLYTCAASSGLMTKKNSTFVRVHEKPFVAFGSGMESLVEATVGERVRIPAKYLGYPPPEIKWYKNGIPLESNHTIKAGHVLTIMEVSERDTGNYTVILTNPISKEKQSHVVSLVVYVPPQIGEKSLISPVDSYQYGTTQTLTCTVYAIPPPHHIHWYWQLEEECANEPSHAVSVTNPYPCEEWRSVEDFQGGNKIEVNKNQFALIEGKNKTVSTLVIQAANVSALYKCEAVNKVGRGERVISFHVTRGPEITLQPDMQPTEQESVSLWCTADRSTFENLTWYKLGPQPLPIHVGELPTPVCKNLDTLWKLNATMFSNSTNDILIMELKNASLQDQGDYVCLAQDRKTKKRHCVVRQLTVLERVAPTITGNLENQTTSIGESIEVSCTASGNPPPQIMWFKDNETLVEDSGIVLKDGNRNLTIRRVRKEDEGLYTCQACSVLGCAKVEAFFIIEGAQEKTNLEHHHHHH

[2] = biological target: T1, Recombinant Human VEGFR2/KDR Protein, …; assay: competition ELISA: hVEGFR2-his coated (1 ug/ml), antibody titrated, then 0.3 ug/ml hVEGF-A added and bound VEGF-A detected; blocked ligand hVEGF-A
Experimental: High-binding clear polystyrene 96 well plates were coated with 100 μl/well of 1 μg/ml hVEGFR2-his overnight at 4° C. After washing and blocking, serial diluted antibodies (from 10 μg/ml to 0.0006 μg/ml) were added and incubate for 1 hour at RT. 0.3 μg/ml hVEGF-A (Acrobiosystem, Cat #VE5-H4210) were added and incubated for 2 hour at RT. Then 100 μl/well of 0.25 μg/ml Biotinylated Rabbit Anti-human VEGF-A (Peprotech, Cat #400-P10Bt) was then added for detecting bound VEGF-A. Then 100 μl/well of a solution of HRP conjugated Neutravidin antibody (Pierce, Cat #31001) and TMB were added sequentially. Finally, reaction was terminated using 0.64M H₂SO₄ and plates were read at 450 nm.
Target sequence in this assay (P35968 other isoform, or with tags, fused parts or gaps): as above

[3] = biological target: T1, Recombinant Human VEGFR2/KDR Protein, …; assay: competition ELISA on coated hVEGFR2-his: hybridoma antibody titrated against 100 ng/ml chimeric 002C, anti-human IgG Fc-HRP
Target sequence in this assay (P35968 other isoform, or with tags, fused parts or gaps): as above

[4] = biological target: T2, human VEGFR2 on HUVEC cells (human, UniProt P35968 20-1356); assay: flow cytometry on HUVEC cells, percent shifted cells (Shift%), anti-mouse IgG-PE
T2 construct: also called hVEGFR2 on HUVEC
Experimental: Log phase HUVEC cells were collected, counted and resuspended in FACS buffer (5% BSA+PBS). 2×10∧5 cells were added to each tube and then washed once with PBS (1500 rpm, 5 mins, RT). Then […] serial diluted VEGFR2 antibodies purified from hybridoma supernatant in FACS buffer were added into corresponding tubes and were incubated at 4° C. for 1 hr. The cells were then washed twice with 1 ml PBS, followed by adding 100 μl/tube of 2nd antibody (1:400 anti-mIgG (H+L)-PE, Cell signaling #8887) in FACS buffer. The cells were incubated at 4° C. for 0.5 hr and then washed twice with PBS, followed by resuspending cells in 600 μl PBS for each sample. The cells were then transferred into FACS tube and the bindings of the antibodies to the cells were detected using flow cytometry (BD Accuri C6) (see FIG. 3).
The percentage of positive binding cells was calculated and fit by Graphpad Prism Software.
Target sequence in this assay (P35968 20-1356 V297I/Q472H limits assumed): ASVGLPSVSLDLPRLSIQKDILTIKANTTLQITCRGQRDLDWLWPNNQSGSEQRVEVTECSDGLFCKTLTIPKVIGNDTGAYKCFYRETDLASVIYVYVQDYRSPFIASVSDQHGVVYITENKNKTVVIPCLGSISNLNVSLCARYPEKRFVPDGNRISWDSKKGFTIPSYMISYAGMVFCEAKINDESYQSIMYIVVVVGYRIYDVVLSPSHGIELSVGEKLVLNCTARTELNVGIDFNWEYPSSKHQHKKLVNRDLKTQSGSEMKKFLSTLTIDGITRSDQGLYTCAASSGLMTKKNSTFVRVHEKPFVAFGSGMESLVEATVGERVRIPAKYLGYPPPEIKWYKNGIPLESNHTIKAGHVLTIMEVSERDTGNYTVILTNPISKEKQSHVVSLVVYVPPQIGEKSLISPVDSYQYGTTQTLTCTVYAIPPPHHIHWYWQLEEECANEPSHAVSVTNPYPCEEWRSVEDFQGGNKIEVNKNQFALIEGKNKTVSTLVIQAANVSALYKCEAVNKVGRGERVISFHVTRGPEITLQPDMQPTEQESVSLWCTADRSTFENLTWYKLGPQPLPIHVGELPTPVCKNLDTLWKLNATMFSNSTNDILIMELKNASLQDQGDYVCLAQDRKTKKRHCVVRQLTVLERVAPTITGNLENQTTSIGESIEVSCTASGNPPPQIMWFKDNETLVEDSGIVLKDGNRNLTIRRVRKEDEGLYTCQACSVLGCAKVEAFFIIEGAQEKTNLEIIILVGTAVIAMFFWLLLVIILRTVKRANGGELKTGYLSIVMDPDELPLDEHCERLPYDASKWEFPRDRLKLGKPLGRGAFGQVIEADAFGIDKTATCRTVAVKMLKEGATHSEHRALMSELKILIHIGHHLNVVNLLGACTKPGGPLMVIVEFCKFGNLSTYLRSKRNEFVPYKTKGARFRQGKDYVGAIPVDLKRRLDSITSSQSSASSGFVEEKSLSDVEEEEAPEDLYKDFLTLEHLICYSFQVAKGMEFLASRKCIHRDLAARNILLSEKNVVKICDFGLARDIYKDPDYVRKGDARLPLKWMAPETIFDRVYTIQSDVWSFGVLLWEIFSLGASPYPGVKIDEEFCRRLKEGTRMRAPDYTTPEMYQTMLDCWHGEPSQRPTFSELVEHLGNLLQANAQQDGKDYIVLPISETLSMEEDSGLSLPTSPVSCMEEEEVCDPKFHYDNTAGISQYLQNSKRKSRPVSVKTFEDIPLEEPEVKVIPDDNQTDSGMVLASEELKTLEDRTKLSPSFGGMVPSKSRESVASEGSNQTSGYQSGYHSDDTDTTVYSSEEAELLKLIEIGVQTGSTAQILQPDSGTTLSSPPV

[5] = biological target: T1, Recombinant Human VEGFR2/KDR Protein, …; assay: ELISA, hVEGFR2-his coated
Experimental: (§1) Same protocol of Example 2 antibody screening by ELISA assay. Briefly, 0.5 μg/ml hVEGFR2-his was coated and serially diluted purified antibodies would bind to coated antigen. Using HRP conjugated goat anti-mouse Fc antibody could detect binding signals of each antibody.
The hybridoma antibodies have similar affinity to human.
Target sequence in this assay (P35968 other isoform, or with tags, fused parts or gaps): as the sequence (P35968 other isoform, or with tags, fused parts or gaps) above

[6] = biological target: T1, Recombinant Human VEGFR2/KDR Protein, …; assay: ELISA, hVEGFR2-his coated, anti-human Fc-HRP; antibody made in 293T cells
Experimental: (§2) Same protocol of Example 4 except using HRP conjugated goat anti-human Fc antibody as secondary antibody. Binding to hVEGFR2-his and rhesus VEGFR2-his (Acrobiosystems, Cat #VE2-C52H3) were also analyzed head-to-head.
Same protocol of Example 9.
Target sequence in this assay (P35968 other isoform, or with tags, fused parts or gaps): as above

[7] = biological target: T2, human VEGFR2 on HUVEC cells; assay: flow cytometry on HUVEC cells, percent shifted cells (Shift %), anti-human IgG-PE
[8] = biological target: T1, Recombinant Human VEGFR2/KDR Protein, …; assay: competition ELISA: VEGF-A coated (0.25 ug/ml), antibody mixed with VEGFR2, detection with mouse anti-VEGFR2 serum and anti-mouse Fc-HRP; blocked ligand VEGF-A
Experimental: For this assay, 0.25 μg/ml VEGF-A was coated on ELISA plate before a mixture of chimeric antibodies and VEGFR2 were added. To detect free VEGF-A (not bind to VEGFR2), 1:1000 diluted mouse serum (mouse previous immunized with human VEGFR2) were added and HRP conjugated goat anti-mouse Fc antibody was used as secondary antibody.

[9] = biological target: T1, Recombinant Human VEGFR2/KDR Protein, …; assay: ELISA, hVEGFR2-his coated (0.5 ug/ml), anti-human Fc-HRP
Experimental: as §1, §2

[10] = biological target: T3, Recombinant Rhesus macaque VEGFR2/KDR Protein, His tag (rhesus macaque); assay: ELISA, rhesus VEGFR2-his coated, anti-human Fc-HRP
T3 construct: Expressed in HEK293, bought from ACRO Biosystems; also called rhesus VEGFR2-his; rhesus VEGFR2
T3 chain: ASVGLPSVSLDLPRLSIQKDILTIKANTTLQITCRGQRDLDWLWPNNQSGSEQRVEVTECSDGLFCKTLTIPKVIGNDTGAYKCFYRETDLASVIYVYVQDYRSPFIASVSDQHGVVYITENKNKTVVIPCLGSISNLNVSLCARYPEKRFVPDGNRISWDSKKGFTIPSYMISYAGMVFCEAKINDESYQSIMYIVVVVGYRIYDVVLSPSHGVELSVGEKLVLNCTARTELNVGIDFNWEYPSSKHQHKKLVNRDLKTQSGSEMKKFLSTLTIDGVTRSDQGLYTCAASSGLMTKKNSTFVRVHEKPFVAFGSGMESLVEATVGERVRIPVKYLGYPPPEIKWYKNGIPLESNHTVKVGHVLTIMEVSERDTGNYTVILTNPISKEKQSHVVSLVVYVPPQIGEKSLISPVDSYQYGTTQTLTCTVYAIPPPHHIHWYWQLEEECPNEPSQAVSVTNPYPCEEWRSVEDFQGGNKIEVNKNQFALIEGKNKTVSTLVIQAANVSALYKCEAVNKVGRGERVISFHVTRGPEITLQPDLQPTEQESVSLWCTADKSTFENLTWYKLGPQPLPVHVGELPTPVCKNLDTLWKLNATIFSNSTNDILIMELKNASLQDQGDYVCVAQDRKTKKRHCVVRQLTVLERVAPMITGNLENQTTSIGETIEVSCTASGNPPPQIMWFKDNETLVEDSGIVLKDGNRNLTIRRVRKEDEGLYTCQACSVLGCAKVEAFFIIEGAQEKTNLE
Experimental: as §1, §2

B2: 54-H1L2 (humanized Mab54) (antibody, human IgG1, V domains shown)
VH: EVQLVESGGGLVKPGGSLKLSCAASGFTFSMYGMSWVRQTPGKRLEWVASISIGGSYTYYADSVKGRFTISRDNAKNTLYLQMNSLKAEDTAVYYCARELDGNYDYWGQGTTLTVSS
VL: DIVITQTPLSLPVTPGESVSISCRSSKSLLYKDGKTYLNWFLQRPGQSPQLLIYLMSTRASGVPDRFSGSGSGTDFTLKISRVEAEDVGVYYCQQLVEYPFTFGSGTKLEIK
notes: also called humanized 54 variant H1L2
Kd [1]: 3.68 nM
koff [1]: 0.000139 s⁻¹
kon [1]: 37700 M⁻¹ s⁻¹
EC50 [6]: 0.0706 µg/mL

B4: 48-H3L2 (antibody, V domains shown)
VH: B2 VH with K19R, T40A, K87R, L100M, Q109H
VL: B2 VL
notes: also called humanized Mab48 variant H3L2
EC50 [6]: 0.0171 µg/mL

B5: 54-H1L1 (humanized Mab54) (antibody, human IgG1, V domains shown)
VH: B2 VH
VL: B2 VL with T7D, P8E, P15F, P64S, V90I
notes: also called humanized 54 variant H1L1
Kd [1]: 1.14 nM
koff [1]: 5.15e-05 s⁻¹
kon [1]: 45100 M⁻¹ s⁻¹
EC50 [6]: 0.0221 µg/mL

B7: 002 (mouse hybridoma antibody) (antibody, V domains shown)
VH: QVQLQQSGPELVKPGASVKISCKASGYAFSSSWMNWVKQRPGEGLEWIGRIFPGDGDTYYNGKFQVKATLTADKSSSTAYMQLSSLTSEDSAVYFCAIFLDTSGRYVDYWGQGTTLTISS
VL: DIVMTQSHKFMSTSVGDRVSITCKASQDVNTAVAWYQQKPGQSPKLLIYSASYRYIGVPDRFTGSGSGTDFTFTISSVQSEDLTVYYCQQHYRAPLTFGSGTKLELK
notes: Mouse antibody purified from hybridoma; also called mAb002; 11B8
Kd [1]: 5.98 nM
koff [1]: 0.000336 s⁻¹
kon [1]: 56200 M⁻¹ s⁻¹
IC50 [2]: 0.0434 µg/mL
IC50 (read off the curve) [3]: ~0.2 µg/mL
EC50 [4]: 0.0462 µg/mL
EC50 [5]: 0.0168 µg/mL

B8: 002C (chimeric 002) (antibody, V domains shown)
VH: B7 VH
VL: B7 VL
notes: Mouse variable regions cloned into expression vector pCP-Hck/Hcg1 (human constant regions; detected with anti-human Fc)
EC50 [7]: 0.0823 µg/mL
IC50 [8]: 2.11 µg/mL
EC50 [9]: 0.0308 µg/mL
EC50 [10]: 0.0209 µg/mL

B9: 003 (mouse hybridoma antibody) (antibody, V domains shown)
VH: QVQLQQPGAELVKPGASVKMSCKASGYTFNTYWIMWVKQRPGQGLEWIGDIYPGTGSTNYNEKFKSKVTLTADTSSTTAYMQVSSLTSEDSAVYYCGRDSNPDYWGQGTTLTVSS
VL: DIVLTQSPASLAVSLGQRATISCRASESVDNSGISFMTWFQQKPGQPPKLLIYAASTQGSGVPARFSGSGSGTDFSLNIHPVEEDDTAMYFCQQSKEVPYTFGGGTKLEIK
notes: Mouse antibody purified from hybridoma; also called mAb003; 21B4
Kd [1]: 0.235 nM
koff [1]: 2.95e-05 s⁻¹
kon [1]: 126000 M⁻¹ s⁻¹
EC50 [5]: 0.00769 µg/mL

More lines, in order of falling Kd [1], values ahead:

Kd [1]: 5.11 nM
koff [1]: 0.000452 s⁻¹
kon [1]: 88400 M⁻¹ s⁻¹
EC50 [5]: 0.0129 µg/mL
B6: 018 (mouse hybridoma antibody) (antibody, V domains shown)
VH: EVKLVESGGGLVQPGGSLSLSCAVSGFTFTDYYMSWVRQPPGKALEWLGFIRNKANGYTTEYSASVKGRFTISRDNSQSILYLQMNALRAEDSATYYCARFDYYGSTYCFDYWGQGTTLTVSS
VL: DIVLTQSPASLAVSLGQRATISCRASQSVSTSSSSFMHWYQQKPGQPPKLLIKYASNLESGVPARFSGSGSGTDFTLNIHPVEEEDTATYYCQHTWEIPLTFGAGTKLELK
notes: Mouse antibody purified from hybridoma; also called mAb018; 16D9G2E8

Kd [1]: 4.3 nM
koff [1]: 0.000128 s⁻¹
kon [1]: 29700 M⁻¹ s⁻¹
EC50 [6]: 0.0442 µg/mL
B3: 54-H2L2 (humanized Mab54) (antibody, human IgG1, V domains shown)
VH: B2 VH with K19R, T40A, K87R
VL: B2 VL
notes: also called humanized 54 variant H2L2

Kd [1]: 1.47 nM
koff [1]: 0.000186 s⁻¹
kon [1]: 127000 M⁻¹ s⁻¹
EC50 [5]: 0.0135 µg/mL
B10: 006 (mouse hybridoma antibody) (antibody, V domains shown)
VH: B9 VH with V2A, A16T, T31S, R40S, T55S, A72V, T77S, G97A
VL: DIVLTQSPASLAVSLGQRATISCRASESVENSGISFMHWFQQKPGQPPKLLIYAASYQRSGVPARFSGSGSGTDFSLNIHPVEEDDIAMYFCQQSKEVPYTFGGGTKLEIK
notes: Mouse antibody purified from hybridoma; also called mAb006; 27E8A9D5

Kd [1]: 0.573 nM
koff [1]: 4.88e-05 s⁻¹
kon [1]: 85100 M⁻¹ s⁻¹
IC50 [2]: 0.0629 µg/mL
IC50 (read off the curve) [3]: ~0.1 µg/mL
EC50 [4]: 0.052 µg/mL
EC50 [5]: 0.0224 µg/mL
B1: 042 (mouse hybridoma antibody) (antibody, V domains shown)
VH: EVQLVESGGDLVKPGGSLKLSCTASGFSFSIYGMSWVRQTPDKRLEWVASISVGGSYTYYADSVEGRFTISRENAKNTLYLQMNSLKSEDTALYYCARELDGNYDYWGQGTSLTVSS
VL: B2 VL with T7N, P8E, L11N, P15F, P64S, K79E, E84K
notes: Mouse antibody purified from hybridoma; also called mAb042; 8G11G1B2C6
